Assay results taken from US9688764B2, “Methods of treating breast cancer by administering anti-human prolactin receptor (PRLR) antibodies” (REGENERON PHARMACEUTICALS, INC., priority 2013, dated 2017).

B1: H1H6765P-DM1: anti-PRLR antibody H1H6765P conjugated to DM1 through an SMCC linker (conjugate)
VH: EVQLVESGGGVVRPGGSLRLSCVGSGFSFDDHGMNWVRQGPGKGLEWVSGFNWNGGSTNYAESVKGRFTISRDNARNSLFLQMNSLRAEDTALYYCVRGRSGWFNDAFDVWGPGTMVTVSS
VL: EIVLTQSPGTLSLSPGERATLSCRASQTINSNYLAWYRQKPGQTPRLLIYGTSSRATGIPDRFSGSGSGTDFSLTISRLEPEDFAVFYCQQYAGLPTFGPGTKVDIK
B2: VV6A9-5: exemplary anti-IL-6R antibody, see U.S. Pat. No. 7,582,298 (antibody, V domains shown)
VH: EVQLVESGGGLVQPGRSLRLSCAASGFTFDDYALHWVRQAPGKGLEWVSGVSWNGGRIGYADSVKGRFTISRDNAKNSLFLQMNSLRVEDTALYYCAKGRDAFDIWGQGTLVTVSS
VL: DIQMTQSPSSVSASVGDRVTITCRASQGISSWLAWYQQKPGKAPKLLIYAASSLQSGVPSRFSGSGSGTDFTLTISSLQPEDFATYYCQHAYSFPYTFGQGTKLEIK

How the values were obtained:
[1] = test system: HEK293 (293) cells; assay: Cell viability (cell kill) assay; type: cell-based; conditions: 293; Table 11; 3 days
Method in brief: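 Anti-PRLR–DM1 ADCs (non-cleavable SMCC linker) or free DM1-SMe, 500 nM to 5 pM for 3 days on parental or hPRLR-overexpressing lines. HEK293: CCK8 OD450; MCF7: Hoechst nuclear counts by imaging.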

[2] = test system: PC3 cells; assay: Cell viability (cell kill) assay; type: cell-based; conditions: Table 11, 3 days
Excerpt: PRLR-overexpressing cells, including HEK293, PC3, MCF7 and NCI-N87, were generated to assess the ability of anti-PRLR conjugated antibodies to reduce cell viability. For comparative purposes, PC3 and T47D cells with overexpressed ErbB2 were also generated, as well as an MCF7 cell line over-expressing both hPRLR and hErbB2. Briefly, Lipofectamine® 2000-mediated transfection methodology was utilized to generate HEK293 cells expressing human PRLR (HEK293/hPRLR) or human ErbB2 (HEK293/hErbB2). Lipofectamine LTX with Plus Reagent was used to generate PC3 cells expressing human PRLR (PC3/hPRLR) or human ErbB2 (PC3/hErbB2). Lentiviral-mediated transduction was utilized to generate MCF7 cells expressing human PRLR (MCF7/hPRLR), NCI-N87 cells expressing human PRLR (NCI-N87/hPRLR), T47D cells over-expressing human ErbB2 (T47D/hErbB2), and MCF7 cells expressing both human PRLR and human ErbB2 (MCF7/hPRLR/hErbB2). All lines were selected for at least two weeks in complete growth media plus appropriate selection reagents. Stably expressing populations were enriched for PRLR expression via FACS using the anti PRLR antibody Control I.
Next, the ability of anti-PRLR-DM1 antibody-drug conjugates (i.e., anti-PRLR antibodies conjugated to DM1 via a non-cleavable linker [SMCC]) to reduce cell viability was determined using in vitro cell based assays. Cells were seeded in PDL-coated 96 well plates at 1500 to 10000 cells per well in complete growth media and allowed to grow overnight. For cell viability curves, ADCs or free DM1 (as the methyl disulfide derivative DM1-SMe) were added to the cells at final concentrations ranging from 500 nM to 5 pM and incubated for 3 days. The 293, PC3 and T47D cells were incubated with CCK8 (Dojindo, Rockville, Md.) for the final 1-3 hours and the absorbance at 450 nm (OD450) was determined on a Flexstation3 (Molecular Devices, Sunnyvale, Calif.). MCF7 cells were treated with Hoechst 33342 nuclear stain while being fixed with 4% formaldehyde. Images were acquired on the ImageXpress micro XL (Molecular Devices, Sunnyvale, Calif.) and nuclear counts were determined via Columbus image analysis software (Perkin Elmer, Shelton, Conn.). Background OD450 values (PC3, 293, and T47D) or nuclear counts (MCF7) from digitonin (40 nM) treated cells was subtracted from all wells and viability was expressed as a percentage of the untreated controls. IC50 values were determined from a four-parameter logistic equation over a 10-point response curve (GraphPad Prism).
Finally, the potency of anti-PRLR antibodies conjugated to DM1 via the non-cleavable linker SMCC was compared to the cell killing potency of anti-PRLR antibodies conjugated to MMAE via the cleavable linker: mc-vc-PAB (available from Concortis, San Diego, Calif.). Cells used in this experiment were PC3, PC3/hPRLR, MCF7/ATCC and MCF7/PRLR.

[3] = test system: PC3/hPRLR cells; assay: Cell viability (cell kill) assay; type: cell-based, human; conditions: PC3/PRLR; Table 11; 3 days
Method in brief: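 PC3 and PC3/hPRLR (lipofection-generated, FACS-enriched for PRLR) cells exposed 3 days to anti-PRLR ADCs or free DM1-SMe, 500 nM to 5 pM. Viability by CCK8 OD450, digitonin background subtracted, as % of untreated; IC50 from four-parameter fit of 10-point curves.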

[4] = test system: MCF7 (MCF7/ATCC) cells; assay: Cell viability (cell kill) assay, nuclear counts; type: cell-based; conditions: MCF7; Table 12; 3 days
Method in brief: (§1)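 Anti-PRLR ADCs or free DM1-SMe were added at 500 nM to 5 pM final to cells seeded overnight and were incubated 3 days. MCF7 lines were fixed with 4% formaldehyde plus Hoechst 33342, and nuclei were counted by imaging, with digitonin […] background subtracted. Viability was expressed as % of untreated cells, and IC50 was obtained from a 4-parameter fit of a 10-point curve.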

[5] = test system: MCF7/hPRLR (MCF7/PRLR) cells; assay: Cell viability (cell kill) assay, nuclear counts; type: cell-based, human; conditions: Table 12, 3 days
Method in brief: as §1

[6] = test system: T47D cells; assay: Cell viability (cell kill) assay; type: cell-based; conditions: T47D, Table 12, 3 days
Method in brief: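 T47D cells grown overnight, then exposed 3 days to anti-PRLR ADCs (DM1 via non-cleavable SMCC linker, or other maytansinoid toxins) or free DM1-SMe, 500 nM to 5 pM. Viability by CCK8 OD450, digitonin background subtracted, as % of untreated; IC50 from 10-point four-parameter fit. PRL (15 nM) co-incubation tested separately.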

[7] = test system: MCF7/PRLR tumors; assay: Tumor growth inhibition in xenograft-bearing mice; type: in vivo, NCr nude mice; conditions: MCF7/PRLR tumors TRIAL #2; multi-dose 5 mg/kg; NCr Nude mice; Day 63
Excerpt: (§2) Briefly, 20×10^6 MCF7/PRLR cells (ATCC HTB-22 transfected with full length hPRLR as previously described) were implanted subcutaneously into the left mammary fat pad of female NCr nude mice. In other studies, 10×10^6 PC3/PRLR (ATCC CRL-1435 transfected with full length hPRLR as previously described) were implanted subcutaneously into the left flank of male SCID mice. Additionally, 10×10^6 parental T47D (ATCC HTB-133) or […] T47D#11 cells (ATCC HTB-133 serially passaged in vivo as described below) were subcutaneously implanted into the left flank of female CB17 SCID mice. All mice were obtained from Taconic (Hudson, N.Y.). Each bolus of cells was supplemented with a 90-day estrogen release pellet (1.7 mg/pellet; Innovative Research America, Sarasota Fla.). Once tumors had reached an average volume of 250 mm^3, mice were randomized into groups of seven and dosed with anti-PRLR antibody-drug conjugates of the invention or control reagents. Control reagents included PBS vehicle, free methyl-disulfide DM1 (DM1-SMe) and isotype Control 1-DM1.
(§3) In multi-dose studies, mice were dosed once a week for a total of three weeks with tumor volumes and body weights being monitored twice weekly throughout the study. Test ADCs were dosed at 5 and/or 15 mg/kg in the multi-dose studies. In single-dose studies, mice received a single dose of test ADC, and tumor volumes and body weights were monitored twice weekly throughout the study. Test ADCs were dosed at 1, 2.5, 5, and 15 mg/kg in the single-dose studies. Average tumor size as well as tumor growth inhibition relative to the vehicle treated group were calculated for each group. Tumors were measured with calipers twice a week until the average size of the vehicle group reached 1000 mm^3. Tumor size was calculated using the formula (length×width^2)/2. Tumor growth inhibition was calculated according to the following formula: (1−((Tfinal−Tinitial)/(Cfinal−Cinitial)))*100, where T (treated group) and C (control group) represent the mean tumor mass on the day the vehicle group reached 1000 mm^3. […] Results are summarized in Tables 21-25 (multi-dose) and Table 26 (single dose). (NT=not tested in the particular experiment shown).

[8] = test system: PC3/PRLR tumors; assay: Tumor growth inhibition in xenograft-bearing mice; type: in vivo, SCID mice; conditions: PC3/PRLR tumors TRIAL #2; multi-dose 5 mg/kg; SCID mice; Day 55
Excerpt: as §2, §3

[9] = test system: T47D#11 tumors; assay: Tumor growth inhibition in xenograft-bearing mice; type: in vivo, CB17 SCID mice
Excerpt: as §2, §3

[10] = Conjugate characterization: protein and linker/payload concentrations, payload loading (UV, MALDI-TOF, SEC-HPLC, RP-HPLC); type: physicochemical; conditions: Anti-PRLR-SMCC-DM1 conjugates; Table 9
Excerpt: Selected anti-PRLR antibodies were conjugated to the maytansinoid DM1 through an SMCC linker using methods similar to those set forth in U.S. Pat. No. 5,208,020 and US Patent Application Publication No. 2010/0129314, the disclosures of which are incorporated by reference herein in their entireties. The conjugates were purified by size exclusion chromatography and sterile filtered. All starting materials and solvents were purchased commercially and used without purification, unless otherwise noted.
Protein and linker/payload concentrations were determined by UV spectral analysis and MALDI-TOF mass spectrometry. Size-exclusion HPLC established that all conjugates used were >95% monomeric, and RP-HPLC established that there was <0.5% unconjugated linker payload. Yields are reported in Table 8 and 9 based on protein. All conjugated antibodies were analyzed by UV for linker payload loading values according to Hamblett et al, 2004, Clinical Cancer Research 10(20):7063-7070, and by mass difference, native versus conjugated.

[11] = target: T1, IL-6R on KG-1, HEK293, HEK293/IL-4R and Ramos cells (Homo sapiens, UniProt P08887); assay: FACS relative cell surface expression with anti-IL-6R antibody VV6A9-5; type: binding
T1 construct: KG-1 (IL-4R^+), HEK293/IL-4R and Ramos (IL-6R^+) cells; endogenous in cells; host or cells: Ramos (IL-6R+), KG-1, HEK293, HEK293/IL-4R
T1 sequence (P08887 20-468): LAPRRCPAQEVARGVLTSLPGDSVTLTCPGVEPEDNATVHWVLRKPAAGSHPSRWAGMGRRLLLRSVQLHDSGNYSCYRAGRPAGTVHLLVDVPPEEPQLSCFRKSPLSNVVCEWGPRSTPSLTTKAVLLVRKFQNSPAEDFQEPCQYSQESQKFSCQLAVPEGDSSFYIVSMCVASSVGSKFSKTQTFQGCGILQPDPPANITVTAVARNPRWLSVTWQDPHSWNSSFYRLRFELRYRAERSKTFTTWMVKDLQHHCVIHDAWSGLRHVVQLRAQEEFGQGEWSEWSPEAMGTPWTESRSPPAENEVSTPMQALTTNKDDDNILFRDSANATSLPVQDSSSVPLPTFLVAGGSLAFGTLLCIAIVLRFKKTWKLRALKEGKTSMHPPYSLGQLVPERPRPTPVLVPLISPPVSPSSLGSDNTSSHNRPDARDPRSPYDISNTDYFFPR
Procedure: Cell surface antigen levels on cells that endogenously or recombinantly express IL-4R or IL-6R were first established using FACS. Briefly, approximately 1 million KG-1 (IL-4R^+), HEK293/IL-4R and Ramos (IL-6R^+) cells were incubated with exemplary anti-IL-4R (H4H083P2, see U.S. Pat. No. 7,608,693) and anti-IL-6R (VV6A9-5, see U.S. Pat. No. 7,582,298) antibodies for 30 min on ice. After washing, a PE-conjugated anti-human secondary antibody (10 μg/ml) was added for 30 min followed by a second washing step and subsequent analysis on an Accuri C6 cytometer using FlowJo software (Tree Star, Inc., Ashland, Oreg.). Relative IL-4R and IL-6R cell surface expression levels were calculated as the mean fluorescence intensity (MFI) above isotype control levels.

Molecule | % Kill [1] [%] | IC50 [1] [nM] | % Kill [2] [%] | % Kill [3] [%] | IC50 [3] [nM] | % Kill [4] [%] | IC50 [4] [nM] | % Kill [5] [%] | IC50 [5] [nM] | % Kill [6] [%] | IC50 ([6]; read-out: IC50) [nM] | Final Tumor size mm^3 (mean ± SEM) [7] [mm^3] | Average Tumor Growth Inhibition (%) [8] [%] | Average Tumor Growth Inhibition (%) ([9]; T47D#11 tumors, multi-dose 5 mg/kg, SCID mice, Day 66) | effect on T47D#11 tumor growth ([9]; multi-dose, 5 and 15 mg/kg) | Payload:Antibody Molar Ratio (MS) [10] | IL-6R Cell Line Expression Level; Fold Over Background ([11]; HEK293) | IL-6R Cell Line Expression Level; Fold Over Background ([11]; HEK293/IL4R) | IL-6R Cell Line Expression Level; Fold Over Background ([11]; KG-1) | IL-6R Cell Line Expression Level; Fold Over Background ([11]; Ramos)
B1 | 86 | 100 | 70 | 70 | 0.57 | 68 | 150 | 84 | 0.18 | 78 | 1.63 | 90 ± 56 | 70 | 100 | potently inhibited tumor growth | 2.3 |  |  |  | 
B2 |  |  |  |  |  |  |  |  |  |  |  |  |  |  |  |  | 1 | 1 | 7 | 1
